This experiment has as its target hFZD7 (Homo sapiens (Human), UniProt O75084). As to the kind of experiment: SPR equilibrium, Norrin immobilised, monomeric CRD analyte.

B1: Norrin (protein)
chain 1: DSDPRRCMRHHYVDSISHPLYKCSSKMVLLARCEGHCSQASRSEPLVSFSTVLKQPFRSSCHCCRPQTSKLKALRLRCSGGMRLTATYRYILSCHCEECNS
chain 2: DSDPRRCMRHHYVDSISHPLYKCSSKMVLLARCEGHCSQASRSEPLVSFSTVLKQPFRSSCHCCRPQTSKLKALRLRCSGGMRLTATYRYILSCHCEECNS
On to B1, for which the Kd (in general, the constant that tells how readily two partners part at equilibrium) is over 100 µM.

Values taken from publication PMC4497409 (2015).
